{
  "source": "patent US8586538B2",
  "about": "“Method of treating a patient suffering from a bleeding disorder comprising administering an antibody against the A3-C1 of FVIII” (Stichting Sanquin Bloedvoorziening, priority 2002, dated 2013)",
  "target": "T1, interaction between FVIII light chain and LRP cluster II (Homo sapiens, UniProt P00451)",
  "T1 construct": "Recombinant LRP clusters II or IV (1 pmol/well) were adsorbed onto microtiter wells; made in house; host or cells: LRP cluster II: BHK cells; FVIII light chain: plasma-derived",
  "T1 sequence (P00451 1668-2351)": "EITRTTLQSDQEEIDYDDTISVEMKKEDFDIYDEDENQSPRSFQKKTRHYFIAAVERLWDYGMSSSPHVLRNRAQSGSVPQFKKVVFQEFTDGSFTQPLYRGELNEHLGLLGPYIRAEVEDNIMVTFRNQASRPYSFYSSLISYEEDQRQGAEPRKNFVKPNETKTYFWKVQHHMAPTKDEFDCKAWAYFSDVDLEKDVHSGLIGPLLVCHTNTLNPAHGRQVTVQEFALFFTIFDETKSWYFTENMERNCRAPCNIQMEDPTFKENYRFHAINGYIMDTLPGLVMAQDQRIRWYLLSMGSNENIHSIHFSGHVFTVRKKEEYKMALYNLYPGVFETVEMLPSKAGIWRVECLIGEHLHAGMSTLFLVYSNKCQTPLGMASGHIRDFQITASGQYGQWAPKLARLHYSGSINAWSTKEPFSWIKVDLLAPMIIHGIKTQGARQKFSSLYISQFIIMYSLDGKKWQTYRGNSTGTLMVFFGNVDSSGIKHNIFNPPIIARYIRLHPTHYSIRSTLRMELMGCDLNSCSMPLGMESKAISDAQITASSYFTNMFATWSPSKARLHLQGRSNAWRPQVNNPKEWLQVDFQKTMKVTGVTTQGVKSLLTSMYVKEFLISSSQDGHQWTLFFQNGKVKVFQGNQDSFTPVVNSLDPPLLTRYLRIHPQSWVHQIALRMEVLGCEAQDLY",
  "assay": "Solid-phase competition: FVIII light chain binding to immobilized LRP cluster II",
  "conditions": "FVIII light chain 25 nM",
  "description": "FIG. 4. Effect of scFv antibody fragments on the interaction between FVIII light chain and LRP. A, FVIII light chain (LCh) (25 nM) was incubated with immobilized LRP cluster II (1 pmol/well) in a volume of 50 μl in 150 mM NaCl, 5 mM CaCl2, 1% (w/v) HSA, 0.1% Tween® 20, and 50 mM Tris (pH 7.4) in the presence of various concentrations (0-100 nM) of scFv KM41 (closed circles) or scFv KM36 (open circles) for 2 h at 37° C. After washing with the same buffer, bound FVIII light chain was quantified by incubation with peroxidase-conjugated anti-FVIII antibody CLB-CAg 12 for 15 min at 37° C. Residual binding is expressed as the percentage of binding in the absence of competitor and is corrected for nonspecific binding (less than 5% relative to binding to LRP cluster II-immobilized wells). Data represent the mean±S.D. of three experiments. B, FVIII light chain (50 nM) was incubated with immobilized LRP (16 fmol/mm^2) as described in the legend of FIG. 1. Binding was assessed in the absence (curve 1) or in the presence of increasing concentrations of scFv KM41 (20, 60, 300, 500 nM, curves 2-5, respectively). Complexes were allowed to form for 30 min before SPR analysis.\nFIG. 5. Effect of scFv KM33 on the interaction between FVIII light chain and LRP. FVIII light chain (LCh) (25 nM) was incubated with immobilized LRP cluster II (1 pmol/well) in a volume of 50 μl in 150 mM NaCl, 5 mM CaCl2, 1% (w/v) HSA, 0.1% Tween® 20, and 50 mM Tris (pH 7.4) in the presence of various concentrations (0-30 nM) of scFv KM36 (open circles) or scFv KM33 (closed circles) for 2 h at 37° C. After washing with the same buffer, bound FVIII Light chain was quantified by incubation with peroxidase-conjugated anti-FVIII antibody CLB-CAg 12 for 15 min at 37° C. Residual binding is expressed as the percentage of binding in the absence of competitor and is corrected for nonspecific binding (less than 5% relative to binding to cluster-coated wells). Data represent the mean±S.D. of three experiments.\nRecombinant LRP clusters II or IV (1 pmol/well) were adsorbed onto microtiter wells in 50 mM NaHCO3 (pH 9.8) in a volume of 50 μl for 16 h at 4° C. Wells were blocked with 2% (w/v) HSA, 150 mM NaCl, 5 mM CaCl2, and 50 mM Tris (pH 7.4) in a volume of 200 μl for 1 h at 37° C. After three rapid washes (less than 5 seconds each) with 150 mM NaCl, 5 mM CaCl2, 0.1% (v/v) Tween® 20, and 50 mM Tris (pH 7.4), FVIII light chain or its derivatives were incubated at various concentrations in a volume of 50 μl in a buffer containing 150 mM NaCl, 5 mM CaCl2, 1% (w/v) HSA, 0.1% (v/v) Tween® 20, and 50 mM Tris (pH 7.4) for 2 h. at 37° C. Bound ligand was detected by incubating with peroxidase-conjugated monoclonal antibody CLB-CAg 12 in the same buffer for 15 min at 37° C. […] In competition experiments, FVIII light chain (25 nM) was incubated with wells containing immobilized LRP clusters, either in the presence or absence of serial dilutions of competitor in a volume of 50 μl for 2 h at 37° C. Residual FVIII binding was detected as described above. Data were corrected for binding to empty microtiter wells, which was less than 5% relative to binding to wells containing immobilized LRP clusters.\n(Note to Table II: Effect of FVIII a3-A3-C1 fragment derived synthetic peptides on the interaction between FVIII light chain and LRP cluster II. FVIII light chain (25 nM) was incubated with immobilized LRP cluster II (1 pmol/well) in a volume of 50 μl in 150 mM NaCl, 5 mM CaCl2, 1% (w/v) HSA, 0.1% Tween® 20, and 50 mM Tris (pH 7.4) in the presence or absence of various concentrations of synthetic peptide (0-1 mM) for 2 h at 37° C. After washing with the same buffer, bound FVIII light chain was quantified by incubation with peroxidase-conjugated anti-FVIII antibody CLB-CAg 12 for 15 min at 37° C. Half-maximum inhibition constants (IC50) represent the mean values±S.D. of three experiments.)",
  "data": [
    {"molecule": "scFv KM41: scFv antibody fragment directed against FVIII region Arg^1803-Lys^1818 (protein) scFv: QVQLLQSAADVKKPGASVKVSCTASGYIFTSYDIDWVRQATGQGLEWMGWMNPNSGNAGFAQKFKGRLTLTRDTSTSTAYMELRRLESEDTAVYYCARSTPHSYSGSGLPPTSDSWGQGTLVTVSSGGGGSGGGGSGGGGSEIVLTQSPGTLSLSPGERATLSCRASQSVSSSFLGWYQQKPGQAPRLLIYGASSRATGIPDRFSGSGSGTDFTLTISRLEPEDFAVYYCQQYGISPLTFGGGTKLEIKRAAAEQKLISEEDLNGAAHHHHHH", "values": [
      {"measurement": "Effect on binding of FVIII light chain to immobilized LRP cluster II", "result": "inhibited the binding"}
    ]}
  ]
}
